Test results reported in patent US20250179155A1 (VANDERBILT UNIVERSITY, published 2025).
Residue numbers refer to the chain shown, from its start.

B1: A1C3 (VHH)
VHH: QVQLQESGGGLVQPGGSLRLSCAASGRIFSIKSMGWYRQAPGKQRELVADITSGGSTNYADSVKGRFTISRDSAWNTVYLQMNSLKPEDTAVYYCRRVVVTPYPDEYEYDYWGQGTQVTVSS
notes: also called Nb A1C3
B2: B1A11 (VHH)
VHH: QVQLQESGGGVVQPGGSLRLTCTSSRSINIYVAMGWYRQAPGKQRERVATAHKDGGTRYSDSVKGRFTISRDDDKNTVYLQMNNLEPGDTAVYYCNAFGSSAWGQGTQVTVSS
B3: B2F11 (VHH)
VHH: QVQLQESGGGLVQAGGSLTLSCTASGFTFSNYVMSWYRQAPGKEREWVASVSESGQSRTYADSVKGRFTISRDNTNFSVYLQMNNLNSEDTAVYYCNTGSRTYGARYWGQGTQVTVSS
B4: A1F4 (VHH)
VHH: QVQLQESGGGLVQAGGSLRLSCTASGRTFTTYNWAWFCQAPGKEREFVAAITGLTRHTYYADSVKGRFTISRDNAKNTVYLQMNSLKPEDTAVYFCAVSSGGDLNERVNYEYWGQGTQVTVSS
B5: A2B5 (VHH)
VHH: QVQLQESGGGLVQAGGSLRLSCTPSERTFSAYTMAWYRQPPGKEREFAAGIKWSGSGGITLYADSVKGRFTISGDNAKSTVYLEMNSLKPEDTAVYYCTAGPTVYNPHYWGQGTQVTVSS
B6: A2H9 (VHH)
VHH: QVQLQESGGGLVQAGGSLRLSCAASGRASSTYVMAWFRQAPGKEREFVAADTWGGAGTYYAPSVKGRFTISRDNAKNMLYLQMNSLKPEDTAAYYCAAGQGRSVTLFQPSTYDYWGQGTQVTVSS
B7: A2G6 (VHH)
VHH: QVQLQESGGGLVQAGGSLRLSCAASGRTFSRIAMGWFRQVPGKEREFVAGISGNGGTFYTDSVKGRFTISRDNTKNTVYLQMNSLRPEDTAVYYCAADPNYRATYFPYGMDYYGRGTQVTVSS
B8: A1G4 (VHH)
VHH: QVQLQESGGGLVQAGGSLRLSCAVSGRTLNSYAMGWFRQALGKEREFVAGISRAGGMTRYTDSVKGRFTISRDDAKNTVYLQMNSLKPDDTAVYSCAASFALVDSAGAYDYWGQGTQVTVSS
B9: A2G5 (VHH)
VHH: B8 VHH with N30S, A54G, F100Y, V103I, S105M, A106S, G107S
B10: A1C4 (VHH)
VHH: QVQLQESGGGLVQPGGSLRLSCAASGRSFSINTMGWYRQAPGNKRDMVATITTGGNTNYADSVKGRFTISRDNAKNTVYLQMNSLKPEDTAVYYCRTVVVTPYPDEFEYDYWGQGTQVTVSS
B11: A2H4 (VHH)
VHH: QVQLQESGGGLVQPGGSLRLSCAASGSIFSINAMGWYRQAPGKQRELVAKITSGGTTNYADSVKGRFTISRDGAKNTVYLQMNSLKPEDTAVYYCNLPWTSDLGWAVKDYWGQGTQVTVSS
B12: A2A6 (VHH)
VHH: QVQLQESGGGLVQAGGSLRLSCADSGRTFSRYEMGWSRQAPGKEREFVAVINRLGRSTYYADSVKGRFTISRDNAKNTVYLQMNSLKPEDTAVYYCAAGVRLNLPQIPDVIDFWGQGTQVTVSS
B13: A1A6 (VHH)
VHH: QVQLQESGGGSVQAGGSLRLSCAASGFIDDDYAIGWFRQAPGKEREGISCISSSNGKIHYADSVKGRFTISEDIAKKTVYLQMNFLKPEDTAVYYCAAETRGWSYCSGYGWSRYKYWGQGTQVTVSS
notes: also called Nb A1A6; A1A6-Avi

Target: T1, TcdA1-1809 (Clostridioides difficile strain VPI10463, UniProt P16154 1-1809)
T1 construct: range 1-1809
Experiment: ELISA on isolated toxin domains (domain specificity)

Row | Binder | binding result
1 | B1 | binds

Target: T2, TcdB-CROPs (TcdB1827-2366) (Clostridioides difficile strain VPI10463, UniProt P18177 1827-2366)
T2 construct: range 1827-2366; also called TcdB CROPS domain; TcdBX-Y
Experiment: as above

T2 sequence (P18177 1827-2366 limits assumed): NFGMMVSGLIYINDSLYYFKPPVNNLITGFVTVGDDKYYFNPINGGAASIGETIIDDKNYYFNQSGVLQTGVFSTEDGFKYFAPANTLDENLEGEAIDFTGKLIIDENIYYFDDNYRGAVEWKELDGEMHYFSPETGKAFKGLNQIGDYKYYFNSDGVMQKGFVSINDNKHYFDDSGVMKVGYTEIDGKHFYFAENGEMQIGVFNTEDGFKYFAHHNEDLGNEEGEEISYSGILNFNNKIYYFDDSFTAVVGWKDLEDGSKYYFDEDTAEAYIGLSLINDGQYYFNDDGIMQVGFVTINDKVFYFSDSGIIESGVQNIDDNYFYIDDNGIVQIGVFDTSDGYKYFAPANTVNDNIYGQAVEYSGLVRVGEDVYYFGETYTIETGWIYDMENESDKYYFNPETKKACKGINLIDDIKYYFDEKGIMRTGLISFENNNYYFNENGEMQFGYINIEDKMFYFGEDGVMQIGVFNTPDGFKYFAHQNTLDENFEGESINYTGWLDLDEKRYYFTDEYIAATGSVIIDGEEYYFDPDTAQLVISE

Row | Binder | binding result
2 | B2 | binds
3 | B3 | binds

Target: full-length TcdB (TcdB1-2366), VPI10463 (Clostridioides difficile strain VPI10463, UniProt P18177 1-2366)
Experiment: cell-based or functional assay

Row | Binder | EC50 (nM), TcdB neutralization, Vero cells [nM]
4 | B2 | 38.4
5 | B3 | 15.6

Target: T3, full-length TcdA (TcdA1-2710) (Clostridioides difficile strain VPI10463, UniProt P16154 1-2710)
Experiment: cell-based or functional assay

T3 sequence (P16154 whole entry): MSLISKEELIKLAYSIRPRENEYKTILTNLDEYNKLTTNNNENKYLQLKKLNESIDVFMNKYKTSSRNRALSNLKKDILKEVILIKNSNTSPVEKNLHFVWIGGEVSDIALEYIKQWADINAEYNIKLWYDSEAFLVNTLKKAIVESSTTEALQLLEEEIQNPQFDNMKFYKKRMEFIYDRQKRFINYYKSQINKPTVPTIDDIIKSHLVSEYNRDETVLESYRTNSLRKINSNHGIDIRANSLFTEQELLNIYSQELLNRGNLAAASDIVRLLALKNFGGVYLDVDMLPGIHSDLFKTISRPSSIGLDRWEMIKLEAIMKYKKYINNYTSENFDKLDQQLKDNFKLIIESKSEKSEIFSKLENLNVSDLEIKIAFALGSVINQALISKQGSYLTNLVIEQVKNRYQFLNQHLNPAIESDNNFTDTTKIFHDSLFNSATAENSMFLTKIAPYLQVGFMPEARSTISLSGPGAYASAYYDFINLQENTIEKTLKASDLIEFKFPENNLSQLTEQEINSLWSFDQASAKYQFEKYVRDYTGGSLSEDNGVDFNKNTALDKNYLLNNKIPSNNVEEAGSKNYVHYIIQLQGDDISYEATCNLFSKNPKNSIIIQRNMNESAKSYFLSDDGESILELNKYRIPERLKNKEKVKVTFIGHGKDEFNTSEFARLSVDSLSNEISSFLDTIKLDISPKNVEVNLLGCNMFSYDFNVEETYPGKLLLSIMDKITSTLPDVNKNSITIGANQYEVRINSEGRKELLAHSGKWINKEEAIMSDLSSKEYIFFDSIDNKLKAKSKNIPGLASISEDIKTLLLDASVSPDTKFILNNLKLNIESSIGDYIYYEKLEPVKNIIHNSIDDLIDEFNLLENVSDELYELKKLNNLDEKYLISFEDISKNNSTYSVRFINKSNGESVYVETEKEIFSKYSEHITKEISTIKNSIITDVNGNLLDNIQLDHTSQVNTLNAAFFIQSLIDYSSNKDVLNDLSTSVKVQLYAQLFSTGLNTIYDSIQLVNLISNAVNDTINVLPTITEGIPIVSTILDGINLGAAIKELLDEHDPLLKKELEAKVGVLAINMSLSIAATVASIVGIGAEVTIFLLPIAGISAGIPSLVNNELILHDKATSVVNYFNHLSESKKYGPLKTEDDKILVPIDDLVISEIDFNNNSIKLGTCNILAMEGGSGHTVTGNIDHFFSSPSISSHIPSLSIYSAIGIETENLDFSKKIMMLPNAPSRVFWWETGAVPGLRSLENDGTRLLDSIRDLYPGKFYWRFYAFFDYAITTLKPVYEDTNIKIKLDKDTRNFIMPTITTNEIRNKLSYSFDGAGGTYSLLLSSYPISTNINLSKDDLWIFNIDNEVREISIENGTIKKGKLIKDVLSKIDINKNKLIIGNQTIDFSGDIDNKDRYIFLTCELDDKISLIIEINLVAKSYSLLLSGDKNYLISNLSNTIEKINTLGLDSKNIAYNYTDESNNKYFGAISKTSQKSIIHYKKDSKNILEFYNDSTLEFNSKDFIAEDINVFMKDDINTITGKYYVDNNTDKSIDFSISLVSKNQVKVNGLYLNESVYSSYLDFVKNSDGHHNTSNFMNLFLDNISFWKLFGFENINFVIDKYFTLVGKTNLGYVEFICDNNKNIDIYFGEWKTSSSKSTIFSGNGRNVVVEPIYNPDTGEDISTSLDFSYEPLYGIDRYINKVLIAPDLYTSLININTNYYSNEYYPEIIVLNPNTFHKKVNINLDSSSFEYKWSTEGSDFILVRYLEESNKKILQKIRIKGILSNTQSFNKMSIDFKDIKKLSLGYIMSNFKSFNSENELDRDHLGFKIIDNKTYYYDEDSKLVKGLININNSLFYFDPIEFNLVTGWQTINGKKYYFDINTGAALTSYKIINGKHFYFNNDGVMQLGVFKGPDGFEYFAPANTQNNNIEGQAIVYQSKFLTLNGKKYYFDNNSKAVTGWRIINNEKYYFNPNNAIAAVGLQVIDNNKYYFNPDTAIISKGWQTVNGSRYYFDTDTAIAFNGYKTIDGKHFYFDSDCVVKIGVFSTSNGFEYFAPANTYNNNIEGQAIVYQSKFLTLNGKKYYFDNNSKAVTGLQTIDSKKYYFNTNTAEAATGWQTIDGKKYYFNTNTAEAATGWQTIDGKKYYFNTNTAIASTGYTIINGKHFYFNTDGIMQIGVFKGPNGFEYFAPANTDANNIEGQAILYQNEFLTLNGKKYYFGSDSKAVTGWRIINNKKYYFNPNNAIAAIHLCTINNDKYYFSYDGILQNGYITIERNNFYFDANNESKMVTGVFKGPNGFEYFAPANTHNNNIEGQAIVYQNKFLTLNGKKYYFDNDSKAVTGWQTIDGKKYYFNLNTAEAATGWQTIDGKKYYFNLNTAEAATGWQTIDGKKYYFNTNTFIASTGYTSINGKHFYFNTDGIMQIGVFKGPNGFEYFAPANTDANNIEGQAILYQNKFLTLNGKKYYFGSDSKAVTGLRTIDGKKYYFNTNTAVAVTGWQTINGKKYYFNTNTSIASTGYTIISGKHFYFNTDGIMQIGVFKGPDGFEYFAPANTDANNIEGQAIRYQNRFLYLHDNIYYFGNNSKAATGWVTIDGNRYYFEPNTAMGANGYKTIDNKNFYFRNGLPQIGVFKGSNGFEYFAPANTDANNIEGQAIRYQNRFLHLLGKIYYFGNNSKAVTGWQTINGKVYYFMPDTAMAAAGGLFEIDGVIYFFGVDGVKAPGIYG

Row | Binder | EC50, TcdA neutralization, T84 cells [nM] | EC50 (nM), TcdA neutralization, Vero cells [nM] | EC50 (nM), TcdA neutralization, T84 cells [nM]
6 | B4 | > 10000 |  | 
7 | B5 |  | 11.1 | 
8 | B6 |  | 8.7 | 105
9 | B7 |  | < 1 | 9.2
10 | B8 |  | 8.5 | 844
11 | B9 | > 10000 |  | 
12 | B10 |  | 2.5 | 60.3
13 | B11 |  | 40.9 | 838
14 | B12 |  | 1 | 91

Target: T3, full-length TcdA (TcdA1-2710)
Experiment: sandwich ELISA on filtered culture supernatant (VPI10463), FIG. 3J

Row | Binder | binding result
15 | B1 | binds

Target: T4, TcdA1-1832 (Clostridioides difficile strain VPI10463, UniProt P16154 1-1832)
T4 construct: range 1-1832; also called TcdA1-1832 (no CROPs domain)
Experiment: negative stain EM with single particle averaging

Row | Binder | binding result
16 | B1 | binds

Target: T3, full-length TcdA (TcdA1-2710)
Experiment: sandwich ELISA, capture A2B10, biotinylated detection A1A6

Row | Binder | binding result
17 | B13 | binds

Target: T5, TcdA-GTD (TcdA1-542) (Clostridioides difficile strain VPI10463, UniProt P16154 1-542)
T5 construct: range 1-542; also called TcdA glucosyltransferase domain
Experiment: ELISA-like screen of clone lysates on isolated domains

T5 sequence (P16154 1-542 limits assumed): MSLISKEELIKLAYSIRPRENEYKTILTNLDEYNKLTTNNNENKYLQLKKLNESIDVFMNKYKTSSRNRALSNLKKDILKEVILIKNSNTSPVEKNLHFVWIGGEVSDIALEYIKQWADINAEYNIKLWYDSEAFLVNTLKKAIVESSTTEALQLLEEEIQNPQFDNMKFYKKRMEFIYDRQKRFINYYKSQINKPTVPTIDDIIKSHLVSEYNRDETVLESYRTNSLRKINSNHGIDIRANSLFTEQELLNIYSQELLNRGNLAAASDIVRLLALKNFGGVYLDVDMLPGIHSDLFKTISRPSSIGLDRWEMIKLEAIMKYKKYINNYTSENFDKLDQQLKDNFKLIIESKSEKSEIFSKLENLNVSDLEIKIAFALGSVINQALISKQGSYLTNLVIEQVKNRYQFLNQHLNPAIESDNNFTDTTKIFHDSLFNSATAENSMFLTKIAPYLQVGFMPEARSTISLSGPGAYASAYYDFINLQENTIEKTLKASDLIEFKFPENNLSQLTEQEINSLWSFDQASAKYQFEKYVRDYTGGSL

Row | Binder | binding result
18 | B4 | no binding
19 | B5 | no binding
20 | B6 | no binding
21 | B7 | no binding
22 | B8 | no binding
23 | B9 | no binding
24 | B10 | no binding
25 | B1 | no binding
26 | B11 | no binding
27 | B12 | no binding
